Data reported in the supplement of paper PMC10567573.

B1: MYBL2 (parent)
chain: VKKSCWTEEEDRIICEAHKVLGNR
B2: SETD8 (parent)
chain: GKQAPRKKAQGKTQQNRKLTDFYP

Variants of: B1
Assay: protein stability index of a GFP-peptide fusion (GPS, HEK-293T) (PSI 1-6); higher = more stable
Settings: c terminus: a fixed tail appended
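Further: lentivirally expressed fusions sorted by FACS into six bins by GFP to DsRed ratio, PSI derived from sequencing read proportions per bin multiplied by bin number.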

Variant | protein stability index
E9Q | 3.45
E9Y | 2.16
E9P | 2.82
E9N | 3.3
E9S | 2.66
E9T | 3.28
E9M | 2.1
E9R | 2.58
E9V | 2.45
E9L | 2.98
E9W | 2.35
V20E | 4.03
V20K | 3.67
V20L | 3.15
V20I | 2.75
V20P | 3.72
V20D | 4.37
V20Y | 3.12
V20S | 3.55
V20M | 3.15
V20Q | 4.5
V20W | 2.04
V20C | 3.84
V20A | 3.51
V20H | 2.55

Variant | protein stability index
V20R | 3.59
V20G | 3.67
V20N | 3.99
V20T | 3.34
V20F | 2.86
D11T | 2.83
D11I | 1.71
D11G | 3.01
D11Q | 3
D11C | 2.53
D11N | 3.72
D11A | 2.95
D11F | 1.59
D11R | 2.85
D11E | 3.43
D11P | 2.76
D11W | 2.42
D11M | 2.12
D11S | 2.8
D11H | 3.57
D11K | 2.74
D11Y | 2.38
D11L | 2.21
D11V | 3.39
K19M | 2.93

Variant | protein stability index
K19I | 2.03
K19P | 3.28
K19Q | 4.09
K19W | 1.91
K19S | 4.02
K19N | 3.41
K19F | 2.19
K19Y | 2.59
K19A | 3.21
K19G | 3.67
K19T | 3.44
K19D | 3.86
K19L | 2.69
K19H | 2.99
K19C | 3.3
K19E | 4.27
K19R | 3.23
K19V | 3.5
I13W | 2.47
I13M | 3.67
I13S | 4.32
I13G | 4.41
I13P | 3.85
I13Y | 3.01
I13N | 3.46

Variant | protein stability index
I13V | 4.55
I13F | 3
I13D | 4.37
I13K | 3.82
I13Q | 4.24
I13T | 3.74
I13E | 3.5
I13H | 3.29
I13R | 3.19
I13A | 4.41
I13L | 3.06
I13C | 2.77
E16L | 1.83
E16N | 3.15
E16R | 3.13
E16A | 2.84
E16D | 3.66
E16W | 2.39
E16C | 1.94
E16S | 3.06
E16P | 3.54
E16I | 1.84
E16Y | 2.32
E16F | 1.69
E16H | 3.1

Variant | protein stability index
E16G | 4
E16Q | 3.14
E16T | 2.72
E16M | 1.78
E16K | 3.08
E16V | 2.31
R24E | 4.05
R24K | 4.21
R24L | 3.32
R24D | 4.19
R24V | 3.47
R24I | 2.69
R24H | 3.49
R24M | 2.86
R24S | 3.63
R24T | 3.95
R24Y | 3.06
R24G | 4.11
R24A | 3.42
R24W | 1.86
R24P | 3.7
R24Q | 4.15
R24F | 2.4
R24N | 3.59
R24C | 3.3

Variant | protein stability index
H18R | 2.69
H18S | 3.81
H18N | 3.88
H18T | 3.79
H18G | 3.2
H18V | 2.2
H18E | 3.83
H18K | 3.73
H18C | 1.8
H18I | 2.91
H18F | 2.63
H18W | 2.18
H18A | 3.47
H18M | 2.73
H18Y | 2.56
H18D | 4.01
H18L | 2.45
H18Q | 3.35
H18P | 4
G22C | 3.03
G22A | 3.17
G22F | 2.54
G22Y | 2.79
G22H | 3.11
G22D | 3.38

Variant | protein stability index
G22W | 2.28
G22R | 2.99
G22N | 3.32
G22I | 2.58
G22Q | 1.97
G22V | 2.86
G22K | 3.11
G22P | 3.54
G22T | 2.83
G22E | 3.96
G22M | 2.89
G22L | 2.64
G22S | 2.7
E10Y | 2.28
E10G | 3.15
E10S | 2.96
E10P | 2.99
E10N | 3.21
E10V | 2.13
E10A | 2.38
E10F | 1.99
E10K | 2.99
E10M | 1.99
E10R | 2.65
E10W | 1.78

Variant | protein stability index
E10H | 3.08
E10Q | 3.26
E10L | 2.06
E10I | 2.39
E10C | 2.27
E10D | 3.1
E10T | 2.47
L21K | 3.26
L21C | 3.66
L21T | 3.44
L21D | 4.36
L21S | 3.3
L21H | 3.53
L21N | 3.83
L21P | 3.8
L21Q | 3.64
L21G | 3.44
L21Y | 3.71
L21I | 3.15
L21E | 3.83
L21F | 2.94
L21A | 3.42
L21W | 3.33
L21V | 3.35
L21M | 3.79

Variant | protein stability index
R12H | 3.55
R12I | 3.38
R12W | 2.22
R12S | 3.25
R12C | 2.17
R12F | 3.1
R12Q | 3.62
R12G | 3.58
R12T | 3.2
R12L | 2.87
R12N | 3.7
R12A | 3.29
R12E | 3.48
R12D | 3.15
R12V | 3.28
R12Y | 3.16
R12K | 4.05
R12P | 3.38
I14Y | 3.23
I14P | 3.67
I14S | 4.11
I14L | 3.41
I14G | 2.86
I14N | 3.28
I14A | 4.24

Variant | protein stability index
I14V | 3.71
I14C | 3.3
I14E | 4.24
I14R | 3.7
I14Q | 4
I14D | 3.69
I14K | 4.53
I14F | 2.91
I14H | 4.29
I14T | 4.39
I14M | 3.29
I14W | 3.12
C15Y | 3.01
C15T | 3.74
C15I | 3.47
C15V | 3.85
C15K | 3.47
C15H | 3.76
C15A | 3.43
C15D | 4.16
C15L | 3.82
C15M | 2.87
C15N | 3.65
C15F | 2.79
C15W | 2.59

Variant | protein stability index
C15G | 4.39
C15Q | 3.85
C15S | 3.69
C15R | 3.36
C15E | 3.94
C15P | 4.16
A17M | 3.03
A17Y | 2.39
A17W | 2.55
A17I | 2.09
A17H | 3.46
A17L | 1.59
A17N | 3.88
A17T | 2.92
A17K | 3.68
A17R | 3.51
A17E | 3.49
A17V | 2.37
A17D | 4.36
A17P | 3.12
A17G | 4.14
A17Q | 3.83
A17C | 2.12
A17F | 2.65
A17S | 3.36

Variant | protein stability index
N23S | 2.9
N23A | 3.08
N23R | 3.64
N23P | 3.77
N23K | 2.59
N23C | 3.23
N23I | 2.63
N23Y | 3.01
N23W | 2.59
N23E | 3.96
N23L | 2.35
N23M | 2.1
N23F | 2.21
N23T | 3.41
N23Q | 2.95
N23H | 3.71
N23V | 2.93
N23D | 3.64
N23G | 2.57

Variants of: B2
Assay: as above
Settings: c terminus: a fixed tail appended

Variant | protein stability index
K2V | 3.99
K2L | 4.09
K2T | 2.46
K2Q | 3.4
K2A | 3.09
K2N | 3.11
K2M | 3.05
K2F | 3.34
K2W | 3.69
K2G | 2.67
K2Y | 2.95
K2R | 3.07
K2C | 2.92
Q3D | 3.41
Q3R | 4.32
Q3P | 2.01
Q3A | 2.63
Q3H | 3.8
Q3K | 3.85
Q3F | 2.67

Variant | protein stability index
Q3G | 3.38
Q3I | 3.33
G1E | 3.79
G1K | 3.75
G1F | 3.39
G1V | 3.12
G1L | 2.66
G1T | 3.2
G1N | 2.88
G1P | 4.24
G1Q | 3.8
G1I | 2.74
G1Y | 3.1
G1A | 3.04
G1M | 2.6
G1R | 2.94
G1D | 2.68
G1C | 2.98
G1S | 3.17
G1H | 3
